# Laboratory results: article PMC6940986, “Structural Insights into the Intracellular Region of the Human Magnesium Transport Mediator CNNM4” (International Journal of Molecular Sciences, 2019)
# Numbering of substitutions follows the chain as printed. Names and notes keep the numbering of the source.
# B1: CNNM4_(BAT-cNMP-Ctail) (complete intracellular region of human CNNM4, residues 356-775) (domain or fragment, UniProt Q6P4Q7 356-775, looked up)
# chain: KEELNMIQGALELRTKTVEDIMTQLQDCFMIRSDAILDFNTMSEIMESGYTRIPVFEDEQSNIVDILYVKDLAFVDPDDCTPLKTITRFYNHPVHFVFHDTKLDAMLEEFKKGKSHLAIVQKVNNEGEGDPFYEVLGLVTLEDVIEEIIKSEILDESDMYTDNRSRKRVSEKNKRDFSAFKDADNELKVKISPQLLLAAHRFLATEVSQFSPSLISEKILLRLLKYPDVIQELKFDEHNKYYARHYLYTRNKPADYFILILQGKVEVEAGKENMKFETGAFSYYGTMALTSVPSDRSPAHPTPLSRSASLSYPDRTDVSTAATLAGSSNQFGSSVLGQYISDFSVRALVDLQYIKITRQQYQNGLLASRMENSPQFPIDGCTTHMENLAEKSELPVVDETTTLLNERNSLLHKASHENAI
# notes: CNNM4, human, UniProtKB/Swiss-Prot Q6P4Q7, residues 356-775 (Bateman module, linker, cNMP domain and C-terminal tail); Cloned into pHIS-Parallel2; also called hCNNM4_(BAT-cNMP-Ctail); full intracellular region; source: E. coli BL21 (DE3), purified (HisTrap, TEV, second Ni-NTA, Superdex 75); not shown: His6, N-terminal, cleaved
# B2: CNNM4_(BAT-cNMP-Ctail) F631A mutant (domain or fragment, human, UniProt Q6P4Q7 356-775, looked up)
# chain: B1 chain with F276A
# notes: CNNM4, human, UniProtKB/Swiss-Prot Q6P4Q7, residues 356-775 with F631A; also called F631A mutant of CNNM4_(BAT-cNMP-Ctail)
# B3: CNNM4_(cNMP) (human CNNM4 cyclic nucleotide monophosphate binding-like domain, residues 545-730) (domain or fragment, UniProt Q6P4Q7 545-730, looked up)
# chain: KISPQLLLAAHRFLATEVSQFSPSLISEKILLRLLKYPDVIQELKFDEHNKYYARHYLYTRNKPADYFILILQGKVEVEAGKENMKFETGAFSYYGTMALTSVPSDRSPAHPTPLSRSASLSYPDRTDVSTAATLAGSSNQFGSSVLGQYISDFSVRALVDLQYIKITRQQYQNGLLASRMENSPQ
# modifications: SeMet labeled in the crystals
# notes: CNNM4, human, UniProtKB/Swiss-Prot Q6P4Q7, residues 545-730 (cNMP domain only, without the C-terminal tail); Cloned into pHIS-Parallel2; In solution a concentration dependent mixture of monomers and dimers; also called hCNNM4_(cNMP); CNNM4_(545-730); source: E. coli BL21 (DE3), purified (HisTrap, TEV, second Ni-NTA, Superdex 75); SeMet derivative from E. coli B834 (DE3) for the crystals; not …
# B4: PRL-1 (phosphatase of regenerating liver 1) (enzyme)
# chain: MARMNRPAPVEVTYKNMRFLITHNPTNATLNKFIEELKKYGVTTIVRVCEATYDTTLVEKEGIHVLDWPFDDGAPPSNQIVDDWLSLVKIKFREEPGCCIAVHCVAGLGRAPVLVALALIEGGMKYEDAVQFIRQKRRGAFNSKQLLYLEKYRPKMRLRFKDSNGHRNNCCIQ
# notes: PRL-1, phosphatase of the regenerating liver; The methods give no source or construct for PRL-1
# Legend:
# [1] = target: the molecule itself; test: SEC-MALS; Superdex 200 10/300 GL, 25 C, 20 mM HEPES pH 7.4, 200 mM NaCl, 1 mM TCEP; 100 uL injected at 1 and 10 g/L; monomer to dimer
# [2] = target: B1; test: SEC-SAXS; KW-403 size-exclusion column online, 20 C, 20 mM HEPES pH 7.4, 200 mM NaCl, 1 mM DTT; samples about 5 mg/mL; CNNM4_(BAT-cNMP-Ctail) and its complex with PRL-1 each without and with 5 mM MgATP; oligomeric state from Porod volume, Rg, Dmax; settings: both partners purified
Binder,stoichiometry N [1],further results
B1,2,–
B2,–,binding result [1]: binds
B3,2,–
B4,–,stoichiometry N [2]: 2 PRL-1 molecules per CNNM4_(BAT-cNMP-Ctail) dimer
